How the values were obtained:
Smad = assay: Dual-pathway multicolor luciferase assay, Smad reporter; format: cell-based, human; conditions: 500 ng/ml WNT5A, at 36 and 48h
Source text: The dual-pathway luciferase reporter vector was generated using the GoldenBraid2.0 Assembly Platform (Sarrion-Perdigones et al., 2011; Sarrion-Perdigones et al., 2013). Briefly, transcriptional units comprising the promoter elements, the CDS of the corresponding luciferase and the bovine growth hormone terminator were first assembled, and then these were latter combined in successive rounds of assembly to build the multigenic vector used in this assay. For the multicolor luciferase assay, H1-derived EPs were first dissociated into 96-well plates using method previously described and incubated overnight to allow cell attachment. […] At the determined harvesting point, culture media was removed and wells were washed with PBS. […] 10 μL of LARII reagent was added with the built-in injectors and after 2 seconds, the total light and the BP filtered light emitted by the FLuc and RedF mixture were measured for 1 second. Finally, 15 μL of Stop & Glo® reagent were injected and after 4 seconds the emitted light by Renilla luciferase was measured. The activity corresponding to FLuc and RedF that were simultaneously measured after the LARII reagent was added were calculated according to the method proposed by Nakayima et al (Nakajima et al., 2005) that is adjusted to this particular assay and explained in FIG. 7D.

JNK = assay: Western blot for phosphorylated JNK and total JNK; format: cell-based, human; conditions: short-term (12h) treatment, 500 ng/ml WNT5A
Protocol: ISL1-EGFP hESCs were differentiated into EPs and first balanced with basal media (DMEM with 1% BSA and NEAA) for 6h and then treated with 500 ng/ml WNT5A in basal media. After 12h, cell lysates were collected as imilion of EPs were pelleted, PBS washed and resuspended in 250 μl of lysis buffer (10 mM HEPES pH7.5, 10 mM MgCl2, 5 mM KCl, 0.1 mM EDTA pH8, 0.1% TritonX-100, 0.2 mM PMSF, 1 mM DTT, 1 tab of Complete Protease Inhibitor Cocktail (Roche)). Cell lysates were centrifuged 12,000 g at 4° C. for 15 min and their supernatants were collected. BCA assay were performed using Pierce BCA protein assay kit (Thermo) to determine protein concentration. For Western blot, […] of protein were denatured with 4x Laemmeli buffer (40% glycerol, 8% SDS, 240 mM Tris-HCl pH6.8, 5% β-mercaptoethanol, 12.5 mM EDTA, 0.04% bromophenol blue) at 95° C. 3 min and resolved in 8% SDS-PAGE. PVDF membranes (BioRad) were used for transfer and membrane were blocked with 5% BSA in Tris-buffered saline with 1% Tween 20 (TBST) for 1h before applying primary antibody. Membranes were washed thrice for 10 min and anti-rabbit IgG-HRP (GE Life Science) were added for 3h at RT, followed by three washes. HyGLO™ Quick Spray Chemiluminescent HRP Antibody Detection Reagent (Denville Scientific Inc.) was used to detect antigen and the membrane was developed using CL-XPosure Film (Thermo Scientific). […]

B1: WNT5A: secreted growth factor from the human pancreatic niche (R&D), used at 100 or 500 ng/ml (protein)
chain: IIGAQPLCSQLAGLSQGQKKLCHLYQDHMQYIGEGAKTGIKECQYQFRHRRWNCSTVDNTSVFGRVMQIGSRETAFTYAVSAAGVVNAMSRACREGELSTCGCSRAARPKDLPRDWLWGGCGDNIDYGYRFAKEFVDARERERIHAKGSYESARILMNLHNNEAGRRTVYNLADVACKCHGVSGSCSLKTCWLQLADFRKVGDALKEKYDSAAAMRLNSRGKLVQVNSRFNSPTTQDLVYIDPSPDYCVRNESTGSLGTQGRLCNKTSEGMDGCELMCCGRGYDQFKTVQTERCHCKFHWCCYVKCKKCTEIVDQFVCK
- Smad activity (in words) (Smad): decreases
- JNK expression and phosphorylation (in words) (JNK): increased

From patent US20200138870A1, “RECREATION OF PANCREATIC NICHE ALLOWS FOR NOVEL METHODS FOR HUMAN, MATURE BETA DERIVATION FROM PLURIPOTENT STEM CELLS” (Baylor College of Medicine, priority 2016, published 2020)
